Laboratory results: US10876098B2, “Polynucleotide, host cell and a method to recombinantly produce the protein encoded by said polynucleotide having peroxygenative activity” (CONSEJO SUPERIOR DE INVESTIGACIONES CIENTIFICAS (CSIC), priority 2015, dated 2020)

Legend:
[1] = target: T1, Agrocybe aegerita peroxygenase AaeUPO1 variant SoLo (JaWa + F191S: V57A, L67F, V75I, F191S, G241D, I248V, R257K, F311L), SEQ ID NO: 42 (Cyclocybe aegerita, UniProt B9W4V6, F234S/F354L/G284D/I291V/L110F/R300K/V100A/V118I); assay: Kinetic constants, SoLo variant; conditions: SoLo vs parental JaWa, ABTS
T1 sequence (B9W4V6 44-371 V100A/L110F/V118I/F234S/G284D/I291V/R300K/F354L): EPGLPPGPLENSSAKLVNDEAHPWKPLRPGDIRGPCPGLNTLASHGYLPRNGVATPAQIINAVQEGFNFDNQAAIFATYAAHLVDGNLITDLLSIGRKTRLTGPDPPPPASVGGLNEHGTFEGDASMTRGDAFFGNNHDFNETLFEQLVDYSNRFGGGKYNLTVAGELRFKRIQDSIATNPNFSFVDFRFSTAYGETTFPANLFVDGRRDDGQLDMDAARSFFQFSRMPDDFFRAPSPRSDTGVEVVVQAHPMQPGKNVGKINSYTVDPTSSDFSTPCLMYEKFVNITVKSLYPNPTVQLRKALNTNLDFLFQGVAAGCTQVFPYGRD
Text: In order to calculate the values of Km and kcat, values of Vmax were represented at substrate concentrations and the hyperbole function was adjusted (using SigmaPlot 10.0, wherein the parameter a is equal to kcat and the parameter b, to Km).

[2] = 4-AAP assay with propranolol in the presence of ascorbic acid (peroxygenase activity); type: biochemical; conditions: propranolol, in the presence of ascorbic acid
Method: (§1) FIG. 9 Assay of 4-AAP (4-aminoantipyrine) with different pure UPO variants (AaeUPO1, PaDa-1 and JaWa). […] Each reaction was performed in triplicate.
(§2) The mother plates were centrifuged (Eppendorf 5810R centrifuge, Germany) for 10 minutes at 3,500 RPM and 4° C. 20 μL of supernatant of these mother plates were transferred to two replica daughter plates with the help of a Freedom EVO liquid-handling robot (Tecan, Switzerland).
(§3) Without ascorbic, the plates were incubated for 30 minutes and with ascorbic for 60 minutes. […] The plates were briefly agitated and absorbance measured at 530 nm, using a plate reader for such purpose ([…]ax Plus 384, Molecular Devices, USA). The values were normalised against the parental of each plate. To rule out false positives, re-screenings were carried out, in addition to a third re-screening wherein kinetic stability was determined (T50) (P. Molina-Espeja, et al. Appl. Environ. Microbiol. 2014. 80, 3496-3507).

[3] = Thermostability assay (T50), culture supernatants, residual activity with ABTS; type: physicochemical; conditions: versus PaDa-I variant
Method: An individual S. cerevisiae colony was selected with the corresponding clone (grown in a SC drop-out minimal medium plate: 100 mL of 6.7% yeast nitrogen base, 100 mL of 19.2 g/L uracil-free amino acid supplement, 100 mL of 20% glucose, 1 mL of 25 g/L chloramphenicol and ddH2O up to 1,000 mL) was inoculated in 2 mL of selective minimal medium (as in the SC plate medium, but with 20 g of bacto agar and rafinose instead of galactose) and was incubated for 48 hour at 30° C. and 220 RPM. An aliquot of this culture was taken such that, upon inoculating it in 5 mL of new minimal medium, optical density at 600 nm would have a value of 0.25 (optical density, OD600=0.25). This starter was incubated until completing two full growth cycles (between 6 and 8 hours), at which time 1 mL of cells were taken to inoculate 9 mL of expression medium in a 100 mL flask (OD600=0.1). This culture of each clone was incubated for 72 hours at 25° C. and 220 RPM (at peak UPO activity; OD600=25-30), the cells were separated by centrifugation (10 minutes at 4,500 RPM and 4° C.) and supernatant was filtered (using a glass and nitrocellulose filter with a pore size of 0.45 μm). Appropriate dilutions of the supernatants were prepared so that aliquots of 20 μL would give rise to a linear response in kinetic mode. 50 μL of supernatant were used for each point in a temperature gradient created by means of thermocyclator, from 30 to 80° C. After incubating for 10 minutes, the aliquots were cooled in ice for 10 minute and tempered at room temperature for 5 minutes. […] The thermostability values were calculated in accordance with the ratio between the residual activities incubated at different temperatures and the value of initial activity at room temperature. The value of T50 was determined as the value of the temperature at which the protein loses 50% of it initial activity after incubating for 10 minutes.
An individual S. cerevisiae colony was selected with the corresponding clone (grown on a SC drop-out minimal medium plate: 100 mL of 6.7% yeast nitrogen base, 100 mL of 19.2 g/L uracil-free amino acid supplement, 100 mL of 20% glucose, 1 mL of 25 g/L chloramphenicol and ddH2O up to 1,000 mL), was inoculated in 3 mL of selective minimal medium (like the SC plate medium, but with 20 g of bacto agar and rafinose instead of galactose) and incubated for 48 hours at 30° C. and 220 RPM. […] The thermostability values were calculated in accordance with the ratio between the residual activities incubated at different temperatures and the value of initial activity at room temperature. The value of T50 was determined as as the temperature value at which the protein loses 50% of its initial activity after incubating for […].

[4] = 4-AAP assay with propranolol in the absence of ascorbic acid (peroxidase activity on the product); type: biochemical
Method: as §1, §2, §3

[5] = Turnover with 5′-hydroxypropranolol as substrate, HPLC; type: biochemical; conditions: 0.03 μM enzyme, 0.4 mM 5′-hydroxypropranolol, 2 mM H2O2, absence of ascorbic acid
Method: FIG. 14 Turnover rates of AaeUPO, JaWa and SoLo. […] The disappearance of the product 5′-hydroxypropranolol can be observed due to the formation of its corresponding quinone by means of the peroxidase activity of the enzyme.
(§4) The reactions were analysed by means of chromatography in reverse phase (HPLC). The equipment was composed of a tertiary pump (Varian-Agilent Technologies, USA) coupled to an autosampler (Merck Millipore, MA, USA); for the separation, a Zorbax Eclipse plus C18 column (15 cm×4.6 cm) at 40° C. was used and the detection was performed using a photodiode detector (PDA) (Varian, Agilent Technologies, USA). The mobile phase selected was a gradient from 10% methanol and 90% ddH2O (in both cases with 0.1% of acetic acid) up to 90% methanol and 10% ddH2O at a flow rate of 0.8 mL/min. The reaction was quantified at 280 nm (based on HPLC standards). […] The standard deviations were less than 5% in all cases.

[6] = Total turnover number (TTN) for synthesis of 5′-hydroxypropranolol from propranolol; type: biochemical
Method: FIG. 15 Calculation of the total turnover number (TTN) of AaeUPO and SoLo.
as §4

[7] = Propranolol transformation reaction analysed by HPLC-PDA; type: biochemical; conditions: absence of ascorbic acid
Method: FIG. 13 Chromatogram showing the enzyme reactions.
as §4

CCn1c(=NN=c2sc3cc(S(=O)(=O)O)ccc3n2CC)sc2cc(S(=O)(=O)O)ccc21 [ABTS, 2,2′-azino-bis(3-ethylbenzothiazolin-6-sulfonic acid)]
affinity to the substrate with respect to its parental [1]: three fold worse

B1: SoLo: JaWa variant with added mutation F191S, SEQ ID NO: 42 (protein)
chain: MKYFPLFPTLVYAVGVVAFPDYASLAGLSQQELDAIIPTLEAREPGLPPGPLENSSAKLVNDEAHPWKPLRPGDIRGPCPGLNTLASHGYLPRNGVATPAQIINAVQEGFNFDNQAAIFATYAAHLVDGNLITDLLSIGRKTRLTGPDPPPPASVGGLNEHGTFEGDASMTRGDAFFGNNHDFNETLFEQLVDYSNRFGGGKYNLTVAGELRFKRIQDSIATNPNFSFVDFRFSTAYGETTFPANLFVDGRRDDGQLDMDAARSFFQFSRMPDDFFRAPSPRSDTGVEVVVQAHPMQPGKNVGKINSYTVDPTSSDFSTPCLMYEKFVNITVKSLYPNPTVQLRKALNTNLDFLFQGVAAGCTQVFPYGRD
peroxygenase activity on microplate higher than its parental (JaWa) [2]: 30% | increase in thermostability (T50) with respect to PaDa-I [3]: 2 °C | decrease in peroxidase activity relative to parental (JaWa) [4]: more than two fold | 5′-hydroxypropranolol maintained without oxidising [5]: approximately 50% | TTNs, With ascorbic acid ([6]; 0.03 μM enzyme, propranolol, 2 mM H2O2 added every 10 minutes, 4 mM ascorbic acid): 62,000 | TTNs, Without ascorbic acid ([6]; 0.03 μM enzyme, propranolol, 2 mM H2O2 added every 10 minutes, absence of ascorbic acid): 45,000 | increase in TTN for synthesis of 5′-hydroxypropranolol versus wild AaeUPO ([6]; absence of antioxidants): 15 fold | regioselectivity against 5′-hydroxypropranolol ([7]; 0.03 μM enzyme, 4 mM propranolol, 2 mM H2O2): 99% | amount of 5′-hydroxypropranolol produced ([7]; compared among AaeUPO, PaDa-I, JaWa, SoLo): produce the largest amount of 5′-hydroxypropranolol
